B1: Ferrienterobactin receptor, P05825 (parent)
chain: MNKKIHSLALLVNLGIYGVAQAQEPTDTPVSHDDTIVVTAAEQNLQAPGVSTITADEIRKNPVARDVSKIIRTMPGVNLTGNSTSGQRGNNRQIDIRGMGPENTLILIDGKPVSSRNSVRQGWRGERDTRGDTSWVPPEMIERIEVLRGPAAARYGNGAAGGVVNIITKKGSGEWHGSWDAYFNAPEHKEEGATKRTNFSLTGPLGDEFSFRLYGNLDKTQADAWDINQGHQSARAGTYATTLPAGREGVINKDINGVVRWDFAPLQSLELEAGYSRQGNLYAGDTQNTNSDSYTRSKYGDETNRLYRQNYALTWNGGWDNGVTTSNWVQYEHTRNSRIPEGLAGGTEGKFNEKATQDFVDIDLDDVMLHSEVNLPIDFLVNQTLTLGTEWNQQRMKDLSSNTQALTGTNTGGAIDGVSTTDRSPYSKAEIFSLFAENNMELTDSTIVTPGLRFDHHSIVGNNWSPALNISQGLGDDFTLKMGIARAYKAPSLYQTNPNYILYSKGQGCYASAGGCYLQGNDDLKAETSINKEIGLEFKRDGWLAGVTWFRNDYRNKIEAGYVAVGQNAVGTDLYQWDNVPKAVVEGLEGSLNVPVSETVMWTNNITYMLKSENKTTGDRLSIIPEYTLNSTLSWQAREDLSMQTTFTWYGKQQPKKYNYKGQPAVGPETKEISPYSIVGLSATWDVTKNVSLTGGVDNLFDKRLWRAGNAQTTGDLAGANYIAGAGAYTYNEPGRTWYMSVNTHF

Variants of: B1
Conditions: Escherichia coli (strain K12); pH 7; 25 °C; GdnHCl; ESR; MOPS 20 mM; structure 1FEP; whole UniProt chain shown

Row | Variant | denaturant m value [kcal/mol/M] | denaturant midpoint (higher = more stable) [M]
1 | Q278C | 1.31 | 1.91
2 | E270C | 4.08 | 1.65
3 | S276C | 4.61 | 1.29
4 | S268C | 4.21 | 1.77
5 | G274C | 5.28 | 1.5
6 | L266C | 3.25 | 2.28
7 | E272C | 5.76 | 1.57

— FireProtDB (doi:10.1002/pro.5560070624)
